Reference: the supplement of paper PMC12764529
± gives the half width of the 95% confidence interval.

Tests used:
[1] = folding stability dG unfold from trypsin proteolysis; higher = more stable
Method in brief: (§1)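 Sequencing followed digestion of designed mini-proteins with trypsin and chymotrypsin, each at 11 concentrations in threefold dilutions together with a no-protease condition. The mini-proteins were under 80 residues, had no cysteine, sat in a PA-tagged cDNA display construct, and were kept only if AlphaFold2 dimer inter-PAE was above 15. From the counts, Bayesian fitting gave K50, and unfolding free energy was derived against a sequence-predicted unfolded-state K50 and a shared folded-state K50, per protease or combined.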

[2] = folding stability dG unfold from chymotrypsin proteolysis; higher = more stable
Method in brief: as §1

[3] = folding stability dG unfold (combined trypsin and chymotrypsin); higher = more stable
Method in brief: as §1

Sequence | folding stability dG unfold [1] | folding stability dG unfold [2] | folding stability dG unfold [3]
SAGGSARRPFNVEAWYPPGRSADNVADELASHFFGIKIDDVEVEPNPDNGYYKIEATIRIPPDWLKSAGGSA [r15_930_TrROS] | 0.0136 ± 0.36 kcal/mol | 0.528 ± 0.29 kcal/mol | 0.33 ± 0.18 kcal/mol
SAGGEFEVYRVKSPDSVVTVTVLPDRVVVNLTDEKNPKVVPIPYPPGHPPTLEDVLALLKSLGFKVEPSAGG [r13_687_TrMRF] | 1.85 ± 0.033 kcal/mol | 1.65 ± 0.043 kcal/mol | 1.79 ± 0.041 kcal/mol
SAGGSAGGMKITIEKLDPEKGVYLLTVKPPGPGKTLVIELPVEKEEEALAFAKKLEELGYEVENSAGGSAGG [r6_796_TrMRF] | 1.02 ± 0.02 kcal/mol | 1.57 ± 0.12 kcal/mol | 1.34 ± 0.13 kcal/mol
SGTRTVTVTGAVLSRLPDGTLVTDPGEAPVTVPVPPPKPRIEVPPELREKLREAAEKLGLELTEEDIETASA [r9_487_TrMRF] | -0.208 ± 0.36 kcal/mol | -0.896 ± 0.9 kcal/mol | -0.365 ± 0.26 kcal/mol
SAGGSAGGSAGGLSLKVKNKKTGKWYDIESIEVKKDPSSGKPVIKIKTSGPKEVEKELVSAGGSAGGSAGGS [r10_663_TrMRF] | -0.894 ± 0.34 kcal/mol | -0.178 ± 0.22 kcal/mol | -0.34 ± 0.4 kcal/mol
SAGNVIVVVNPETGEVVVVSFDELVRIVAVSSKTLVPEVRDVPRDKVLDFIKEAFPGPVEILEIKPAPVSAG [r5_519_TrMRF] | 1.02 ± 0.043 kcal/mol | 1.22 ± 0.05 kcal/mol | 1.19 ± 0.053 kcal/mol
SKKTIYIVNEDGSIIRFDEETGEITIFNKETGKEVKIKVEKKGNELIITIEVNGKKYKIKIPKGDIIPIKSA [r9_239_TrROS_Hall] | 2.32 ± 0.062 kcal/mol | 4.16 ± 0.07 kcal/mol | 3.68 ± 0.24 kcal/mol
SAGMIEINNVTPNYVMIKIWNPDNGKKWEIPIQYERDNGKPYSKDKALEEIKDIAKEFYPDFDIEVEPVSAG [r5_293_TrROS] | 0.0269 ± 0.15 kcal/mol | 0.727 ± 0.14 kcal/mol | 0.41 ± 0.25 kcal/mol
SAGGSAGGSAGKEYYVVAKVEDPSTGKVTVYVGPFSDFVKTFDPKNSKVEFFLVEKDALKSAGGSAGGSAGG [r11_334_TrMRF] | 1.87 ± 0.073 kcal/mol | 3.31 ± 0.044 kcal/mol | 2.89 ± 0.077 kcal/mol
SMKTVTLNFPSLSEEEVRALAEELEATGRYRVEKIDSSTPNIKVTVLEEPPEPRPPPPPALVRDADARAASA [r9_830_JUSTAS] | 1.08 ± 0.088 kcal/mol | 1.83 ± 0.12 kcal/mol | 1.4 ± 0.12 kcal/mol
SAGGSAGGSAGIPLGPDGGLIVTEGPDGPVEERLFASPEEARRWIEEHLPEGWRVVFRPLSAGGSAGGSAGG [r11_983_TrMRF] | 1.15 ± 0.017 kcal/mol | 1.6 ± 0.13 kcal/mol | 1.47 ± 0.058 kcal/mol
SAGGSAGGSKIPPNQFIVRIEIKRRKPNGEKRKHEIIIPVGMPLDTLRDHAPPGYEITDIEVISAGGSAGGS [r12_597_TrROS] | 1.17 ± 0.023 kcal/mol | 1.8 ± 0.021 kcal/mol | 1.6 ± 0.05 kcal/mol
SAGGRKAKVTVTLPDGTVVELELEFKTEEEFEKAVKEKLEELFGKSIEEVPFVEKKVTVYDPEKGSKSESAG [r5_482_JUSTAS] | 1.13 ± 0.13 kcal/mol | 2.18 ± 0.12 kcal/mol | 2.04 ± 0.31 kcal/mol
MEIKKIELKVEEKDGKLVLTVKIEVFDKNGKLVKKVEIKLEVPKELKEGQSLEELPLSEELRKLVKELLEKS [r1_354_TrROS_Hall] | 3.11 ± 0.26 kcal/mol | 3.79 ± 0.34 kcal/mol | 3.54 ± 0.7 kcal/mol
SAGGSAGGSMVVVRRLPDGRYLLEVRLEGESLRFEVDGEEEVERFAKALEELTGRPVEVLTVESAGGSAGGS [r12_783_TrMRF] | 4.56 ± 0.12 kcal/mol | 3.84 ± 0.043 kcal/mol | 4.15 ± 0.061 kcal/mol
SAGGSAGGSAGGKKTITVPVKIEEVDGKFRITLPDGKVIEFPPGAKVEEKDGLLTIELESAGGSAGGSAGGS [r10_305_TrROS_Hall] | 0.932 ± 0.025 kcal/mol | 1.13 ± 0.078 kcal/mol | 1.14 ± 0.11 kcal/mol

Sequence | folding stability dG unfold [1] | folding stability dG unfold [2] | folding stability dG unfold [3]
SAGGSAGGSAGPPDQNFLIKIKWQENGKKREHTIPIPAENLDEVLDELSPWPGLEVEIIPSAGGSAGGSAGG [r17_50_TrROS] | -0.408 ± 0.085 kcal/mol | -0.295 ± 0.11 kcal/mol | -0.376 ± 0.19 kcal/mol
SAMELSPEERAELLIEAVRRKLEEARKKGIPNKKVKVTIVLSEEEREALAKRIEEELKEEGYEVEIVPESAG [r14_908_TrROS_Hall] | 2.17 ± 0.068 kcal/mol | 2.61 ± 0.13 kcal/mol | 2.29 ± 0.17 kcal/mol
SAGMPIRVRLLVERPALDPETGEPVVERREVVLTLHPEEIASGIPVEELAKELEKAFPGAKVTVLEVSSAGG [r19_110_TrMRF] | 3.88 ± 0.11 kcal/mol | 3.77 ± 0.044 kcal/mol | 3.81 ± 0.047 kcal/mol
SAGGSAGGMRLVVEDFDEEEMEEVERRVREFAEEHDVEVDIYRRRRPDGRVVLVVEIRPKEDLPSAGGSAGG [r6_906_TrMRF] | 2.87 ± 0.058 kcal/mol | 3.02 ± 0.034 kcal/mol | 2.95 ± 0.052 kcal/mol
SAGGSAGGSSVTRLIYLEDGTVLVVKLTPKPLVLPDGKPAFVLGFEVVEIRPVKDPKEALKALSAGGSAGGS [r12_915_TrMRF] | 1.81 ± 0.039 kcal/mol | 1.3 ± 0.081 kcal/mol | 1.61 ± 0.071 kcal/mol
SAGFKIKIEPDKNMPPGQKPMTEEELKKIAKSIAKQMEQDPGNPGKEVKIEIPFYFPDGYWYRIEIEKSAGG [r19_132_TrROS] | 0.259 ± 0.19 kcal/mol | 0.647 ± 0.29 kcal/mol | 0.506 ± 0.34 kcal/mol
SAGGTFQVKDPNGKQKPVQLRVRITFEFKGGDKQTFEIEVEGATVDDLREFANSLMNKGFKPVSIEIWSAGG [r13_227_TrROS] | 1.595 ± 0.0094 kcal/mol | 2.03 ± 0.047 kcal/mol | 1.88 ± 0.048 kcal/mol
SAGGSADPEKVKLIEVEVEVHVEYDPEKGTYTVKAEFPDLTLSFEVPADSIHPDEKFKAPVLILVLSAGGSA [r15_190_TrMRF] | 2.29 ± 0.091 kcal/mol | 3.7 ± 0.22 kcal/mol | 3.29 ± 0.24 kcal/mol
SAGGMKIKIEIEPEGDVVKVKIEIELPEGKVEVVEEEEAEVFEDGKIKVRFRVRRKDGPEFEFELDISAGGS [r8_449_TrMRF] | 3.49 ± 0.17 kcal/mol | 4.41 ± 0.2 kcal/mol | 4.17 ± 0.18 kcal/mol
SMTTEEKVEVSVTVTPDPNSDNVTLTLTITKRTYAKDENGNWTEVSTETSTITVTLSPEEAAKLAAELLSSA [r9_642_JUSTAS] | 3.75 ± 0.2 kcal/mol | 4.52 ± 0.099 kcal/mol | 4.34 ± 0.17 kcal/mol
SAGGSAGGSAMKVPLENVENPKKFPGTGLEIYTFTDKETGKKKIVLVEKPPNKGKKITVIESAGGSAGGSAG [r3_491_JUSTAS] | 0.0339 ± 0.12 kcal/mol | -0.146 ± 0.28 kcal/mol | 0.0523 ± 0.14 kcal/mol
SMKEKALEKAKEKAEEIKKKYSNVKVKVEVKVEITPKGEIKITYKVVIEKPEKEKPYWVKYPNGPWKKIGSA [r9_82_JUSTAS] | 1.2 ± 0.24 kcal/mol | 1.86 ± 0.54 kcal/mol | 1.5 ± 0.55 kcal/mol
SAGGSAGGMIKYSEEAPDPSYRTEVEVTPVPGKVAIKTTTYRNENGVWTAEESTSVVSPEALLSSAGGSAGG [r6_778_JUSTAS] | -0.703 ± 0.19 kcal/mol | 0.341 ± 0.095 kcal/mol | 0.0979 ± 0.088 kcal/mol
SAGGATIELEVLLEDGTLVRVRAELDEDGRLVSVEVEVRRLEPPPPPPPPERTETRVETRTEYRPEESAGGS [r8_270_TrROS_Hall] | 2.73 ± 0.35 kcal/mol | 3.23 ± 0.52 kcal/mol | 2.95 ± 0.48 kcal/mol
SAGGSAGGSKPKEIETVTLKLTLKDPETGEEIEVTVELTRVRVDGKEYLILRVTDPDGKEIELSAGGSAGGS [r12_283_TrROS_Hall] | 3.13 ± 0.12 kcal/mol | 4.115 ± 0.039 kcal/mol | 3.81 ± 0.09 kcal/mol
